In patent publication US20260266848A1, “COMPOSITIONS AND METHODS FOR DIAGNOSING AND TREATING DYSTONIA” (Duke University, priority 2023, published 2026):

B1: Uso1 (protein, UniProt Q9Z1Z0 1-959, looked up)
General vesicular transport …: MNFLRGVMGGQSAGPQHTEAETIQKLCDRVASSTLLDDRRNAVRALKSLSKKYRLEVGIQAMEHLIHVLQTDRSDSEIIAYALDTLYNIISNDEEEELEENSTRQSEDLGSQFTEIFIKQPENVTLLLSLLEEFDFHVRWPGVRLLTSLLKQLGPPVQQIILVSPMGVSRLMDLLADSREIIRNDGVLLLQALTRSNGAIQKIVAFENAFERLLDIITEEGNSDGGIVVEDCLILLQNLLKTNNSNQNFFKEGSYIQRMKPWFEVGEENSGWSAQKVTNLHLMLQLVRVLVSPTNPPGATSSCQKAMFQCGLLQQLCTILMATGIPADILTETINTVSEVIRGCQVNQDYFASVNAPSNPPRPAIVVLLMSMVNERQPFVLRCAVLYCFQCFLYKNEKGQGEIVATLLPSTIDATGNSVSAGQLLCGGLFSTDSLSNWCAAVALAHALQGNATQKEQLLRVQLATSIGNPPVSLLQQCTNILSQGSKIQTRVGLLMLLCTWLSNCPIAVTHFLHNSANVPFLTGQIAENLGEEEQLVQGLCALLLGISIYFNDNSLENYTKEKLKQLIEKRIGKENFIEKLGFISKHELYSRASQKPQPNFPSPEYMIFDHEFTKLVKELEGVITKAIYKSSEEDKKEEEVKKTLEQHDNIVTHYKNMIREQDLQLEELKQQVSTLKCQNEQLQTAVTQQASQIQQHKDQYNLLKVQLGKDNHHQGSHGDGAQVNGIQPEEISRLREEIEELKSQQALLQGQLAEKDSLIENLKSSQASGMSEQASATCPPRDPEQVAELKQELTALKSQLCSQSLEITRLQTENCELLQRAETLAKSVPVEGESEHVSAAKTTDVEGRLSALLQETKELKNEIKALSEERTAIQKQLDSSNSTIAILQTEKDKLDLEVTDSKKEQDDLLVLLADQDQKILSLKSKLKDLGHPVEEEDESGDQEDDDDEIDDGDKDQDI
B2: Cnn3 (protein, UniProt Q9DAW9 1-330, looked up)
Calponin-3: MTHFNKGPSYGLSAEVKNKIASKYDQQAEEDLRNWIEEVTGLGIGTNFQLGLKDGIILCELINKLQPGSVKKVNESSLNWPQLENIGNFIKAIQAYGMKPHDIFEANDLFENGNMTQVQTTLVALAGLAKTKGFHTTIDIGVKYAEKQTRRFDEGKLKAGQSVIGLQMGTNKCASQAGMTAYGTRRHLYDPKMQTDKPFDQTTISLQMGTNKGASQAGMLAPGTRRDIYDQKLTLQPVDNSTISLQMGTNKVASQKGMSVYGLGRQVYDPKYCAAPTEPVIHNGSQGTGTNGSEISDSDYQAEYPDEYHGEYPDDYPREYQYGDDQGIDY
B3: Impa1 (protein, UniProt O55023 1-277, looked up)
Inositol monophosphatase 1: MADPWQECMDYAVILARQAGEMIREALKNEMDVMIKSSPADLVTVTDQKVEKMLMSSIKEKYPCHSFIGEESVAAGEKTVFTESPTWFIDPIDGTTNFVHRFPFVAVSIGFLVNKEMEFGIVYSCVEDKMYTGRKGKGAFCNGQKLQVSQQEDITKSLLVTELGSSRKPETLRIVLSNMEKLCSIPIHGIRSVGTAAVNMCLVATGGADAYYEMGIHCWDMAGAGIIVTEAGGVLMDVTGGPFDLMSRRIIAANSITLAKRIAKEIEIIPLQRDDES
B4: Vapa (protein, UniProt Q9WV55 2-249, looked up)
Vesicle-associated membrane …: ASASGAMAKHEQILVLDPPSDLKFKGPFTDVVTTNLKLQNPSDRKVCFKVKTTAPRRYCVRPNSGIIDPGSIVTVSVMLQPFDYDPNEKSKHKFMVQTIFAPPNISDMEAVWKEAKPDELMDSKLRCVFEMPNENDKLNDMEPSKAVPLNASKQDGPLPKPHSVSLNDTETRKLMEECKRLQGEMMKLSEENRHLRDEGLRLRKVAHSDKPGSTSAVSFRDNVTSPLPSLLVVIAAIFIGFFLGKFIL
B5: Cxadr (protein, UniProt P97792 20-365, looked up)
Coxsackievirus and adenovirus …: LSITTPEQRIEKAKGETAYLPCKFTLSPEDQGPLDIEWLISPSDNQIVDQVIILYSGDKIYDNYYPDLKGRVHFTSNDVKSGDASINVTNLQLSDIGTYQCKVKKAPGVANKKFLLTVLVKPSGTRCFVDGSEEIGNDFKLKCEPKEGSLPLQFEWQKLSDSQTMPTPWLAEMTSPVISVKNASSEYSGTYSCTVQNRVGSDQCMLRLDVVPPSNRAGTIAGAVIGTLLALVLIGAILFCCHRKRREEKYEKEVHHDIREDVPPPKSRTSTARSYIGSNHSSLGSMSPSNMEGYSKTQYNQVPSEDFERAPQSPTLAPAKVAAPNLSRMGAVPVMIPAQSKDGSIV
B6: Ptk2 (protein, UniProt P34152 2-1052, looked up)
Focal adhesion kinase 1: AAAYLDPNLNHTPSSSTKTHLGTGMERSPGAMERVLKVFHYFESSSEPTTWASIIRHGDATDVRGIIQKIVDSHKVKHVACYGFRLSHLRSEEVHWLHVDMGVSSVREKYELAHPPEEWKYELRIRYLPKGFLNQFTEDKPTLNFFYQQVKSDYMQEIADQVDQEIALKLGCLEIRRSYWEMRGNALEKKSNYEVLEKDVGLKRFFPKSLLDSVKAKTLRKLIQQTFRQFANLNREESILKFFEILSPVYRFDKECFKCALGSSWIISVELAIGPEEGISYLTDKGCNPTHLADFNQVQTIQYSNSEDKDRKGMLQLKIAGAPEPLTVTAPSLTIAENMADLIDGYCRLVNGATQSFIIRPQKEGERALPSIPKLANSEKQGMRTHAVSVSETDDYAEIIDEEDTYTMPSTRDYEIQRERIELGRCIGEGQFGDVHQGVYLSPENPALAVAIKTCKNCTSDSVREKFLQEALTMRQFDHPHIVKLIGVITENPVWIIMELCTLGELRSFLQVRKYSLDLASLILYAYQLSTALAYLESKRFVHRDIAARNVLVSSNDCVKLGDFGLSRYMEDSTYYKASKGKLPIKWMAPESINFRRFTSASDVWMFGVCMWEILMHGVKPFQGVKNNDVIGRIENGERLPMPPNCPPTLYSLMTKCWAYDPSRRPRFTELKAQLSTILEEEKVQQEERMRMESRRQATVSWDSGGSDEAPPKPSRPGYPSPRSSEGFYPSPQHMVQTNHYQVSGYPGSHGIPAMAGSIYQGQASLLDQTELWNHRPQEMSMWQPSVEDSAALDLRGMGQVLPPHLMEERLIRQQQEMEEDQRWLEKEERFLKPDVRLSRGSIDREDGSFQGPTGNQHIYQPVGKPDPAAPPKKPPRPGAPGHLSNLSSISSPADSYNEGVKLQPQEISPPPTANLDRSNDKVYENVTGLVKAVIEMSSKIQPAPPEEYVPMVKEVGLALRTLLATVDETIPALPASTHREIEMAQKLLNSDLGELISKMKLAQQYVMTSLQQEYKKQMLTAAHALAVDAKNLLDVIDQARLKMLGQTRPH
B7: Fus (protein, UniProt P56959 1-518, looked up)
RNA-binding protein FUS: MASNDYTQQATQSYGAYPTQPGQGYSQQSSQPYGQQSYSGYGQSADTSGYGQSSYGSSYGQTQNTGYGTQSAPQGYGSTGGYGSSQSSQSSYGQQSSYPGYGQQPAPSSTSGSYGGSSQSSSYGQPQSGGYGQQSGYGGQQQSYGQQQSSYNPPQGYGQQNQYNSSSGGGGGGGGGNYGQDQSSMSGGGGGGGYGNQDQSGGGGGGYGGGQQDRGGRGRGGGGGYNRSSGGYEPRGRGGGRGGRGGMGGSDRGGFNKFGGPRDQGSRHDSEQDNSDNNTIFVQGLGENVTIESVADYFKQIGIIKTNKKTGQPMINLYTDRETGKLKGEATVSFDDPPSAKAAIDWFDGKEFSGNPIKVSFATRRADFNRGGGNGRGGRGRGGPMGRGGYGGGGSGGGGRGGFPSGGGGGGGQQRAGDWKCPNPTCENMNFSWRNECNQCKAPKPDGPGGGPGGSHMGGNYGDDRRGRGGYDRGGYRGRGGDRGGFRGGRGGGDRGGFGPGKMDSRGEHRQDRRERPY
B8: Extl2 (protein, UniProt Q9ES89 1-330, looked up)
Exostosin-like 2: MMRGCHICKLPGRVMGIRVLRFSLVVILVLLLVAGALTNLLPNIKEDKMLTLRREIKSPSKSALDSFTLIMQTYNRTDLLLRLLNHYQAVPSLHKVIVVWNNVGEKGPEELWNSLGPHPIPVIFKPQTANKMRNRLQVFPEVETNAVLMVDDDTLISAQDLVFAFSIWQQFPDQIIGFVPRKHVSTSSGIYSYGGFELQTPGPGNGDQYSMVLIGASFFNSKYLELFQKQPAAVHALIDETQNCDDIAMNFLVTRHTGKPSGIFVKPINMVNLEKETNGYSGMWHRAEHFLQRSYCINKLVNIYDGMPLKYSNIMISQFGFPYANHKSKM
B9: Nap1l4 (protein, UniProt Q78ZA7 2-375, looked up)
Nucleosome assembly protein …: AENSLSDGGPADSVEAAKNASNTEKLTDQVMQNPQVLAALQERLDNVSHTPSSYIETLPKAVKRRINALKQLQVRCAHIEAKFYEEVHDLERKYAALYQPLFDKRREFITGDVEPTDAESAWHSENEEEDKLAGDMKNKVVIAEKEAATVEELNPKGIPEFWFTIFRNVDMLSELVQEYDEPILKHLQDIKVKFSDPGQPMSFVLEFHFEPNDYFTNPVLTKTYKMKSEPDKADPFSFEGPEIVDCDGCTIDWKKGKNVTVKTIKKKQKHKGRGTVRTITKQVPNESFFNFFSPLKASGDGESLDEDSEFTLASDFEIGHFFRERIVPRAVLYFTGEAIEDDDNFEEGEEGEEEELEGDEEGEDEDDADVNPKV

Assays:
DYT-TOR1A MEF EVs = assay: Quantitative LC-MS/MS proteomics of EVs from drug-treated DYT-TOR1A MEF cultures (ritonavir, salubrinal); type: cell-based, mouse; design: key to RTV Corrective Direction / RTV Corrective Direction, Grwd1 / RTV Corrective Direction, Srrm2 / RTV Corrective Direction, Rbm17 / RTV Corrective Direction, Dcaf8 / RTV Corrective Direction, Edil3 / RTV Corrective Direction, Timp3 / RTV Corrective Direction, Heatr3 / RTV Corrective Direction, Brd4 / RTV Corrective Direction, P3h4 / RTV Corrective Direction, Pacsin3 / RTV Corrective Direction, Naa50 / RTV Corrective Direction, Lpar6 / RTV Corrective Direction, Ndrg1 / RTV Corrective Direction, Kntc1 / RTV Corrective Direction, Cdk11b / RTV Corrective Direction, Sumo1 / RTV Corrective Direction, Lsm4 / RTV Corrective Direction, Hmga2 / RTV Corrective Direction, Cstf1 / RTV Corrective Direction, Tes / RTV Corrective Direction, Sbno1 / RTV Corrective Direction, Unc119b / RTV Corrective Direction, Cfdp1 / RTV Corrective Direction, Sec61b: YES = protein abundance effect opposite to DYT/WT; details: EV protein abundance; for RTV Corrective Direction: DYT + RTV (ritonavir) vs DYT, direction compared with DYT/WT; for DYT + RTV/DYT Cohen's d: ritonavir (RTV)-treated DYT vs DYT
WT MEF EVs = assay: Quantitative LC-MS/MS proteomics of EVs from ISRIB-treated WT MEF cultures; type: cell-based, mouse; design: key to ISRIB and DYT Parallel Direction / ISRIB and DYT Parallel Direction, Ctdsp1 / ISRIB and DYT Parallel Direction, Pcdh19 / ISRIB and DYT Parallel Direction, Tspan7 / ISRIB and DYT Parallel Direction, Myo1e / ISRIB and DYT Parallel Direction, Plpp3 / ISRIB and DYT Parallel Direction, Sh3bp4 / ISRIB and DYT Parallel Direction, Dnajc7 / ISRIB and DYT Parallel Direction, Drg1 / ISRIB and DYT Parallel Direction, Maea: YES = protein abundance effect similar to DYT/WT; details: EV protein abundance; for WT + ISRIB/WT Cohen's d: ISRIB-treated WT vs WT; for ISRIB and DYT Parallel Direction: WT + ISRIB vs WT, direction compared with DYT/WT

| Molecule | RTV Corrective Direction (DYT-TOR1A MEF EVs) | DYT + RTV/DYT Cohen's d (DYT-TOR1A MEF EVs) | WT + ISRIB/WT Cohen's d (WT MEF EVs) | ISRIB and DYT Parallel Direction (WT MEF EVs) |
| --- | --- | --- | --- | --- |
| B1 | YES | 9.12 | 2.44 | – |
| B2 | YES | 4.78 | 2.76 | – |
| B3 | YES | 10.89 | 1.73 | – |
| B4 | YES | 1.91 | 3.18 | – |
| B5 | YES | 3.88 | 1.72 | – |
| B6 | YES | 0.10 | −3.26 | YES |
| B7 | YES | 11.94 | 0.85 | – |
| B8 | YES | 0.12 | −1.42 | YES |
| B9 | YES | 5.74 | 2.43 | – |
